From patent US20230134571A1 (INTERNATIONAL AIDS VACCINE INITIATIVE, published 2023)

Key:
Test in all cases: cell-based or functional assay
[1] = target: HIV Env of isolate 3301.v1.c24 (clade AC) (HIV)
[2] = target: HIV Env of isolate CNE19 (clade BC) (HIV)
[3] = target: HIV Env of isolate ZM197M.PB7 (clade C) (HIV)
[4] = target: HIV Env of isolate ZM109F.PB4 (clade C) (HIV)
[5] = target: HIV Env of isolate X1632_S2_B10 (clade G) (HIV)
[6] = target: HIV Env of isolate Ce2010_F5 (clade C) (HIV)
[7] = target: HIV Env of isolate 6540.v4.c1 (clade AC) (HIV)
[8] = target: HIV Env of isolate 1056_10_TA11_1826 (clade B) (HIV)
[9] = target: HIV Env of isolate Du422.1 (clade C) (HIV)
[10] = target: HIV Env of isolate WITO4160.33 (clade B) (HIV)
[11] = target: HIV Env of isolate Q461.e2 (clade A) (HIV)
[12] = target: HIV Env of isolate 9004SS_A3_4 (clade A) (HIV)
[13] = target: HIV Env of isolate 231965.c01 (clade D) (HIV)
[14] = target: HIV Env of isolate CNE17 (clade BC) (HIV)
[15] = target: HIV Env of isolate ZM233M.PB6 (clade C) (HIV)
[16] = target: HIV Env of isolate 62357_14_D3_4589 (clade B) (HIV)
[17] = target: HIV Env of isolate BJOX010000.06.2 (clade AE) (HIV)
[18] = target: HIV Env of isolate T251-18 (clade AG) (HIV)
[19] = target: HIV Env of isolate CNE21 (clade BC) (HIV)
[20] = target: HIV Env of isolate CNE5 (clade AE) (HIV)
[21] = target: HIV Env of isolate 6535.3 (clade B) (HIV)
[22] = target: HIV Env of isolate P0402_C2_11 (clade G) (HIV)
[23] = target: HIV Env of isolate 249MB10 (clade C) (HIV)
[24] = target: HIV Env of isolate Q842.d12 (clade A) (HIV)
[25] = target: HIV Env of isolate 3103.v3.c10 (clade ACD) (HIV)

Binder	IC50 (µg/ml) with constrains [1] [µg/mL]	IC80 (µg/ml) with constrains [1] [µg/mL]	IC50 (µg/ml) with constrains [2] [µg/mL]	IC50 (µg/ml) with constrains [3] [µg/mL]	IC50 (µg/ml) with constrains [4] [µg/mL]	IC50 (µg/ml) with constrains [5] [µg/mL]	IC50 (µg/ml) with constrains [6] [µg/mL]	IC50 (µg/ml) with constrains [7] [µg/mL]	IC80 (µg/ml) with constrains [7] [µg/mL]	IC50 (µg/ml) with constrains [8] [µg/mL]	IC50 (µg/ml) with constrains [9] [µg/mL]	IC50 (µg/ml) with constrains [10] [µg/mL]	IC50 (µg/ml) with constrains [11] [µg/mL]	IC80 (µg/ml) with constrains [11] [µg/mL]	IC50 (µg/ml) with constrains [12] [µg/mL]	IC80 (µg/ml) with constrains [12] [µg/mL]	IC50 (µg/ml) with constrains [13] [µg/mL]	IC50 (µg/ml) with constrains [14] [µg/mL]	IC50 (µg/ml) with constrains [15] [µg/mL]	IC50 (µg/ml) with constrains [16] [µg/mL]	other results
ePGDM13 (antibody, V domains shown) VH: QAQLVQSGPEVRKPGTSVKVSCKNPGNTLTTYDLHWVRQVPGQGLQWMGWISHEGDKKVIVERFKAKVTIDWDRSTNTAYLQLSGLTSEDTAVYYCAKGSKHRLRDYALYDEDGALNWAVDVDYLANLEFWGQGTAVTVSS VL: DIVLTQSPLSLSVTPGESASISCKSSHSLQHGDRNNYLAWYVQKPGRSPQLLLDLASERASGVPDRFSGSGSEKDFTLKISRVETEDVGTYYCMQGRESPWTFGQGTKVDIK	0.057	0.228	0.003	0.06	0.049	0.003	> 100	0.015	0.06	1.51	27.5	0.003	0.132	0.528	> 100	> 100	0.015	0.008	0.001	17.4	IC50 (µg/ml) with constrains [17]: 0.979 µg/mL; IC80 (µg/ml) with constrains [17]: 3.92 µg/mL; IC50 (µg/ml) with constrains [18]: > 100 µg/mL; IC80 (µg/ml) with constrains [18]: > 100 µg/mL; IC50 (µg/ml) with constrains [19]: 0.001 µg/mL; IC50 (µg/ml) with constrains [20]: 0.001 µg/mL; IC80 (µg/ml) with constrains [20]: 0.004 µg/mL; IC50 (µg/ml) with constrains [21]: > 100 µg/mL; IC50 (µg/ml) with constrains [22]: 0.001 µg/mL; IC50 (µg/ml) with constrains [23]: 0.032 µg/mL; IC50 (µg/ml) with constrains [24]: > 100 µg/mL; IC80 (µg/ml) with constrains [24]: > 100 µg/mL; IC50 (µg/ml) with constrains [25]: 0.09 µg/mL; IC80 (µg/ml) with constrains [25]: 0.36 µg/mL
PGDM1400 (antibody, V domains shown) VH: QVHLTQSGPEVRKPGTSVKVSCKAPGNTLKTYDLHWVRSVPGQGLQWMGWISHEGDKKVIVERFKAKVTIDWDRSTNTAYLQLSGLTSGDTAVYYCAKGSKHRLRDYALYDDDGALNWAVDVDYLSNLEFWGQGTAVTVSS VL: DFVLTQSPHSLSVTPGESASISCKSSHSLIHGDRNNYLAWYVQKPGRSPQLLIYLASSRASGVPDRFSGSGSDKDFTLKISRVETEDVGTYYCMQGRESPWTFGQGTKVDIK	0.131	0.523	0.005	0.071	0.098	0.034	> 100	0.007	0.026	3.38	33.4	0.003	0.143	0.572	> 100	> 100	0.061	0.005	0.002	> 100	IC50 (µg/ml) with constrains [17]: 0.871 µg/mL; IC80 (µg/ml) with constrains [17]: 3.48 µg/mL; IC50 (µg/ml) with constrains [18]: > 100 µg/mL; IC80 (µg/ml) with constrains [18]: > 100 µg/mL; IC50 (µg/ml) with constrains [19]: 0.003 µg/mL; IC50 (µg/ml) with constrains [20]: 0.001 µg/mL; IC80 (µg/ml) with constrains [20]: 0.003 µg/mL; IC50 (µg/ml) with constrains [21]: > 100 µg/mL; IC50 (µg/ml) with constrains [22]: 0.007 µg/mL; IC50 (µg/ml) with constrains [23]: 0.021 µg/mL; IC50 (µg/ml) with constrains [24]: > 100 µg/mL; IC80 (µg/ml) with constrains [24]: > 100 µg/mL; IC50 (µg/ml) with constrains [25]: 0.223 µg/mL; IC80 (µg/ml) with constrains [25]: 0.892 µg/mL
ePGDM9 (antibody, V domains shown) VH: QAQLVQSGPEVRKPGTSVKVSCKNPGNTLTTYDLHWVRQVPGQGLQWMGWISHEGDKKVIVERFKAKVTIDWDRSTNTAYLQLSGLTSEDTAVYYCAKGSKHRLRDYALYDEDGALNWAVDVDYLANLEFWGQGTAVTVSS VL: DIVLTQSPLSLSVTPGESASISCKSSQSLIHGDRNNYLAWYVQKPGRSPQLLIDLASERASGVPDRFSGSGSRKDFTLKISRVETEDVGTYYCMQGRESPWTFGQGTKVDIK	0.021	0.084	0.003	0.023	0.027	0.003	> 100	0.008	0.031	0.903	13.3	0.002	0.06	0.24	> 100	> 100	0.009	0.003	0.002	9.51	IC50 (µg/ml) with constrains [17]: 0.293 µg/mL; IC80 (µg/ml) with constrains [17]: 1.17 µg/mL; IC50 (µg/ml) with constrains [18]: > 100 µg/mL; IC80 (µg/ml) with constrains [18]: > 100 µg/mL; IC50 (µg/ml) with constrains [19]: 0.002 µg/mL; IC50 (µg/ml) with constrains [20]: 0.001 µg/mL; IC80 (µg/ml) with constrains [20]: 0.003 µg/mL; IC50 (µg/ml) with constrains [21]: 57.8 µg/mL; IC50 (µg/ml) with constrains [22]: 0.001 µg/mL; IC50 (µg/ml) with constrains [23]: 0.007 µg/mL; IC50 (µg/ml) with constrains [24]: > 100 µg/mL; IC80 (µg/ml) with constrains [24]: > 100 µg/mL; IC50 (µg/ml) with constrains [25]: 0.073 µg/mL; IC80 (µg/ml) with constrains [25]: 0.29 µg/mL
ePGDM5 (antibody, V domains shown) VH: QAQLVQSGPEVRKPGTSVKVSCKNPGNTLTTYDLHWVRQVPGQGLQWMGWISHEGDKKVIVERFKAKVTIDWDRSTNTAYLQLSGLTSEDTAVYYCAKGSKHRLRDYALYDEDGALNWAVDVDYLANLEFWGQGTAVTVSS VL: DFVLTQSPLSLSVTPGESASISCKSDHSLQHGDRNNYLAWYVQKPGRSPQLLIDLASERASGVPDRFSGSGSRKDFTLKIDRVEAEDVGTYYCMQGRESPWTFGQGTKVDIK	0.043	0.174	0.003	0.035	0.03	0.003	> 100	0.012	0.05	0.893	8.64	0.004	0.104	0.415	> 100	> 100	0.009	0.007	0.002	9.98	IC50 (µg/ml) with constrains [17]: 0.536 µg/mL; IC80 (µg/ml) with constrains [17]: 2.15 µg/mL; IC50 (µg/ml) with constrains [18]: > 100 µg/mL; IC80 (µg/ml) with constrains [18]: > 100 µg/mL; IC50 (µg/ml) with constrains [19]: 0.002 µg/mL; IC50 (µg/ml) with constrains [20]: 0.001 µg/mL; IC80 (µg/ml) with constrains [20]: 0.004 µg/mL; IC50 (µg/ml) with constrains [21]: 98.2 µg/mL; IC50 (µg/ml) with constrains [22]: 0.004 µg/mL; IC50 (µg/ml) with constrains [23]: 0.011 µg/mL; IC50 (µg/ml) with constrains [24]: > 100 µg/mL; IC80 (µg/ml) with constrains [24]: > 100 µg/mL; IC50 (µg/ml) with constrains [25]: 0.063 µg/mL; IC80 (µg/ml) with constrains [25]: 0.254 µg/mL
